In this assay the target is IGSF1 항원 (IGSF1 카복시 말단 도메인의 세포외 도메인 - 인간 Fc - his tag 융합 단백질) (human) (UniProt Q8N6C5). As to the kind of experiment: ELISA; human IGSF1 antigen diluted 1/3 from 100 nM to 0.046 nM; fit in GraphPad Prism 6.

B1: WM-A1-2608 (antibody, V domains shown)
VH: QVQLVQSGGGLVQPGGSLRLSCEASGFAFRRYEMNWVRQTPGKGLEWIAYINSGGSVKVYADSVKGRFAISRNDSKNSLYLQMNSLRAEDTAVYYCARAGNAFGTFDYWGQGTLVTVSS
VL: DIQMTQSPSSVSASVGDRVTITCRASQDISRWLAWYQQKPGKAPKRLMYAASVLDVGVPSRFSGSGSGTDFTLTISNLQPEDFATYYCQQPISFPLTFGGGTKVDIK
In turn, B1 yielded a Kd of 0.097 nM.

B2: WM-A1-3105 (antibody, V domains shown)
VH: QMQLVQSGAEVKRPGSSVKVSCKASGRSTYNYAFYWVRQAPGHGLEWMGGIIPIFGATNYAQKFQGRVTITADESTNTAYMEVTNLRSEDTAVYYCAKGSGNYYYGMDVWGQGTTVTVSS
VL: DIQMTQSPSSVSASVGDRVTITCRASQSVGTWLAWYQQKPGRAPKLLISAASSLHPGVPSRFSGSGSGTDFTLTISSLQPEDFATYYCQQADSFPYTFGQGTKLEIK
For B2, the dissociation constant Kd amounted to 29.5 nM.

B3: WM-A1-3128 (antibody, V domains shown)
VH: QVQLVESGGGVVQPGKSLRLSCAASGFSLRTYGMHWVRQAPGKGLEWVANIWHDGSHTFYADSVQGRFTVSRDNSANLLFLQMNSLRAEDTAVYYCARGGSYSRYSDAFDIWGQGTVITVSS
VL: DIQMTQSPGTLSLSPGERATLSCRASQSVSSSYLAWYQQKPGQAPRLLIYDASNRATGIPARFSGTGSGTDFTLTISSLEPEDFAVYYCQQRSNWPLTFGGGTKVEIK
B3 gave a dissociation constant Kd of 27.2 nM.

B4: WM-A1-3106 (antibody, V domains shown)
VH: QVQLVESGGGVVPPGGSVRLSCAASGFTFGDYAMHWVRQAPGKGLEWVSLISGDGGTTYYGDSVKGRYTISRDNSKNSLYLQMNSLRAEDTAVYYCARGGRVYGMDVWGQGTTVTVSS
VL: DIQMTQSPSSLSASVGNRVTITCRASQGISVWLAWFQQKPETAPKSLIYGSSNLQSGVPSRFSGSGSGTDFTLTINNLQPEDFATYYCQQYKASPPTFGGGTKVDIK
The molecule B4 showed a Kd of 20.8 nM.

B5: WM-A1-2613 (antibody, V domains shown)
VH: QVQLQESGPGLVKPSGTLSLTCAVSGDSVISTDWWSWVRQPPGKELEWIGEIHHSGSTNYNPSLEGRVTISVDKSKNQFSLKLTSVTAVDTAVYYCSRGSGGRDAFDVWGQGTMITVSS
VL: QSALTQPPSSSGTPGQKVTISCSGSMSNIGGNYVSWYQQVPGTAPKLLIFKTNQGAAGVPDRFVGSKSGTSASLVISGLRPEDEATYYCASWDDIGDGPTWVFGGGTKLTVL
In the case of B5, the Kd came out at 0.1 nM. This Kd lies about 210-fold lower than the previous one.

B6: WM-A1-3133 (antibody, V domains shown)
VH: QMQLVQSGGKLVQPGSSLRLSCAASGFSFDDYGMSWVRQAPGKGLEWVSAISGSGGSTYYADSVKGRFTISRDNSKNTLYLQMNSLRAEDTAVYYCARGGRVYGMDVWGQGTTVTVSS
VL: DIQMTQSPSSVSASVGDTVTITCRASHDIRRWLAWYQQKPGEVPKVLIYAAAVLHSGVPSRFSGSGSGTDFSLTITNLQPEDVATYYCQKYDSVPFTFGGGTKLEIK
B6: the Kd was 300 nM.

B7: WM-A1-3102 (antibody, V domains shown)
VH: QMQLVQSGAEVKKPGSSVKVSCKASGGTFSSYAISWVRQAPGQGLEWMGGIIPVLGATNYAQRFQGRVTMTADESTTTAYMELSGLRSEDTAVYYCARGRSWGFDYWGHGTLITVSS
VL: DIVMTQTPLSLPVTPGQPASISCKSSQSLLHSDGNTYLDWYLQKPGQSPQLLIYTLSHRASGVPDRFSGSGSGTDFTLKISRVEADDVGLYYCMQRIEFPYTFGQGTKVEIK
For the molecule B7, the Kd was 18.8 nM.

The Kd is a measure of binding affinity in units of concentration.

Values taken from patent publication KR20230163144A.
